Laboratory results taken from patent publication US20230242640A1 (OSE IMMUNOTHERAPEUTICS, published 2023).
Positions count from the first letter of the chain named. Numbers in names are those of the source.

B1: anti-SIRPg antibody A1 (antibody, human IgG4 S228P, kappa, V domains shown)
VH: EVQLVESGGGVVRPGGSLRLSCAASGFTFDDYGMSWVRQAPGKGLEWVSGINWNGGSTGYADSVKGRFTISRDNAKNSLYLQMNSLRAEDTAVYYCARWIAKVWGQGTLVTVSR
VL: SSELTQDPAVSVALGQTVRITCQGDSLRSYYASWYQQKPGQAPVLVIYGKNNRPSGIPDRFSGSSSGNTASLTITGAQAEDEADYYCNSRDSSGNHVVFGGGTKLTVLR
notes: human IgG4 S228P, kappa constant; also called VHA1-hFcG4 + VL-CLkappa
B2: anti-SIRPg antibody A5 (antibody, human IgG4 S228P, kappa, V domains shown)
VH: B1 VH with W99Q, I100M, A101V, V103L
VL: B1 VL
notes: human IgG4 S228P, kappa constant; also called VHA5-hFcG4 + VL-CLkappa
B3: anti-SIRPg antibody A8 (antibody, human IgG4 S228P, kappa, V domains shown)
VH: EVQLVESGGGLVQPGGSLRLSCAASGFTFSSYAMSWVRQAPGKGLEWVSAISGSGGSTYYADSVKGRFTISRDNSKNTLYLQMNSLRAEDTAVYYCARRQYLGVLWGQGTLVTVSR
VL: B1 VL
notes: human IgG4 S228P, kappa constant; also called VHA8-hFcG4 + VL-CLkappa

Tests used:
protein SIRPb-His = target: T1, protein SIRPb-His (human, UniProt Q5TFQ8 30-371); experiment: ELISA on coated SIRPb-His
T1 construct: The methods give no supplier for SIRPb-His; also called hSIRPb-his
T1 sequence (Q5TFQ8 30-371): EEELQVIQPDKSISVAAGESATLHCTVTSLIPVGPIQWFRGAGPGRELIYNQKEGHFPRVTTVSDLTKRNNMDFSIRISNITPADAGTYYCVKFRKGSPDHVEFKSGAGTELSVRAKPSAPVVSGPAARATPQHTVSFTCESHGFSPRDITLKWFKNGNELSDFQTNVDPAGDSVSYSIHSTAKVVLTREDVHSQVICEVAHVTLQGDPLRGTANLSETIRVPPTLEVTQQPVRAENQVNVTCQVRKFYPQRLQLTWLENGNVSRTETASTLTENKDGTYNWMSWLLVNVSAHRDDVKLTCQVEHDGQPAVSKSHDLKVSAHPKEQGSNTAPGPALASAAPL
Text: FIG. 2. Binding on SIRPg, SIRPa and SIRPb ELISA assay (protein SIRPa/b/g-His coated and anti-human peroxidase detection). Binding analysis of antibodies A1, A5 and A8, and prior art antibody Kwar23.

[1] = target: T2, recombinant hSIRPg-His (Sino Biologicals reference 11828-H08H) (human, UniProt Q9P1W8 29-360); experiment: ELISA on coated SIRPg-His
T2 construct: Bought protein; also called protein SIRPg-His; SIRP-gamma
T2 sequence (Q9P1W8 29-360): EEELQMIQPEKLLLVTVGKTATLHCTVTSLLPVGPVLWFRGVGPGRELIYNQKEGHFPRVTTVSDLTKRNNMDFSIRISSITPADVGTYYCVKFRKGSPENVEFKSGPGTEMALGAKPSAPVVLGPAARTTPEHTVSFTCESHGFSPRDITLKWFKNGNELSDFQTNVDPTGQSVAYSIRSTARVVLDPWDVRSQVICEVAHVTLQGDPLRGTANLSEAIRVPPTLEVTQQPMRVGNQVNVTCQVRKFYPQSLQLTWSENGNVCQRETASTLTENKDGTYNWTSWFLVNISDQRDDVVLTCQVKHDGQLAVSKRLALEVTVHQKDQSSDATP
Procedure: For activity ELISA assay, recombinant hSIRPg (Sino Biologicals, Beijing, China; reference 11828-H08H) or hSIRPa (Sino Biologicals, Beijing, China; reference 11612-H08H) was immobilized on plastic at 1 µg/ml (hSIRPg) or 0.5 µg/ml (hSIRPa) in carbonate buffer (pH9.2) and purified antibody were added to measure binding.

| Binder | binding result (protein SIRPb-His) | binding result [1] |
| --- | --- | --- |
| B1 | no binding | binds |
| B2 | no binding | binds |
| B3 | no binding | binds |
